Measurements taken from publication PMC7862292, “Crystal structures of non-oxidative decarboxylases reveal a new mechanism of action with a catalytic dyad and structural twists” (Scientific Reports, 2021).
Values belong to the compound of their own block, whether it stands above or below them.

Assays:
AGDC1 = target: T1, AGDC1 (Blastobotrys adeninivorans, UniProt A0A060TAG5); experiment: UV decrease of gallic acid at […] nm; assay type: biochemical; details: read-out: % inhibition at 0.5 mM
T1 construct: synthetic gene in pET15b, E. coli C41, N-terminal His6 tag removed by thrombin; trimer with central K+ and peripheral Co2+ sites

PPP2 [1] = target: T2, PPP2 (Madurella mycetomatis, UniProt A0A175WC91); experiment: UV decrease of substrate at […] nm; assay type: biochemical; details: 0.5 mM substrate, 50 mM KPi pH 6.5, RT, 160 ug/ml enzyme; decarboxylation to pyrogallol, weaker than protocatechuic acid
T2 construct: gene MMYC01_201259; synthetic gene in pET15b, E. coli C41, N-terminal His6 tag removed by thrombin; trimer with central K+; no cobalt site

PPP2 [2] = target: T2, PPP2; experiment: UV decrease of substrate at […] nm; assay type: biochemical; details: 0.5 mM substrate, 50 mM KPi pH 6.5, RT, 160 ug/ml enzyme; decarboxylation to catechol
[3] = target: AGDC1 E88A mutant (Arxula adenivorans); experiment: SEC; Superdex 200 10/300; with (25 mM Tris 7.5, 50 mM KCl, 100 mM NaCl) or without (25 mM Tris 7.5, 100 mM NaCl) potassium; Bio-rad Gel Filtration Standard; all proteins eluted as a single peak
[4] = target: Pea Pathogenity Protein (PPP2) from Madurella mycetomatis (Madurella mycetomatis); experiment: crystal structure; hanging drop vapor diffusion, protein 10 mg/ml in 20 mM Tris pH 7.5, with or without 5 mM nitrocatechol alone or with 0.5 mM CoCl2; AGDC1 in PEG 3350, 0.2 M potassium salt, MES; PPP2 in PEG 3350, 0.2 M calcium chloride, MES pH 5.5
[5] = target: Pea Pathogenity Protein (PPP2) from Madurella mycetomatis (Madurella mycetomatis); experiment: SEC; Superdex 200 10/300; with (25 mM Tris 7.5, 50 mM KCl, 100 mM NaCl) or without (25 mM Tris 7.5, 100 mM NaCl) potassium; Bio-rad Gel Filtration Standard; all proteins eluted as a single peak
[6] = target: gallic acid decarboxylase AGDC1 from Arxula adenivorans (Arxula adenivorans); experiment: crystal structure; hanging drop vapor diffusion, protein 10 mg/ml in 20 mM Tris pH 7.5, with or without 5 mM nitrocatechol alone or with 0.5 mM CoCl2; AGDC1 in PEG 3350, 0.2 M potassium salt, MES; PPP2 in PEG 3350, 0.2 M calcium chloride, MES pH 5.5
[7] = target: gallic acid decarboxylase AGDC1 from Arxula adenivorans (Arxula adenivorans); experiment: SEC; Superdex 200 10/300; with (25 mM Tris 7.5, 50 mM KCl, 100 mM NaCl) or without (25 mM Tris 7.5, 100 mM NaCl) potassium; Bio-rad Gel Filtration Standard; all proteins eluted as a single peak

T1 sequence (A0A060TAG5 entry or part of it): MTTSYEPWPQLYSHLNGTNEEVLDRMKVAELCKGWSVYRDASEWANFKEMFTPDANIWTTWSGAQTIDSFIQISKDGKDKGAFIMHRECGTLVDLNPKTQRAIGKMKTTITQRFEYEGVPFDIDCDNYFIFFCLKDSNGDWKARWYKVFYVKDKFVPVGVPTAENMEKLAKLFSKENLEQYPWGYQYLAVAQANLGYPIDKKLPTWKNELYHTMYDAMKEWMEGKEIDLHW

Compound: O=C(O)c1cc(O)c(O)c(O)c1 [gallic acid]
UV decrease of substrate at 259 nm (PPP2 [1]): PPP2 activity with PCA was ~ sevenfold higher than with GA

Compound: O=C(O)c1ccc(O)c(O)c1 [protocatechuic acid]
UV decrease of substrate at 250 nm (PPP2 [2]): PPP2 activity with PCA was ~ sevenfold higher than with GA

Compound: AGDC1 E88A mutant (enzyme)
stoichiometry N [3]: 3

Compound: gallic acid decarboxylase AGDC1 from Arxula adenivorans (enzyme)
stoichiometry N [6]: 3
stoichiometry N [7]: 3

Next, values leading:

inhibition at 500 µM (AGDC1): 98%
Compound: O=[N+]([O-])c1ccc(O)c(O)c1 [4-nitrocatechol]

stoichiometry N [4]: 3
stoichiometry N [5]: 3
Compound: Pea Pathogenity Protein (PPP2) from Madurella mycetomatis (enzyme)
